The values that follow come from PMC6856128 (Scientific Reports, 2019).

The data set has as its system O=S(O)(O)=S. Put plainly: purified protein. The note with it: pH 8.0; 37.0 °C.

“CysA2 (Mycobacterium tuberculosis H37Rv)”: the Km (as a rule, the substrate concentration at which the rate is half of its maximum) was determined as 2970 ± 50 µM.
